Source: US20180142032A1

Columns and labels:
LAMP1::histag (human) [1] = molecular target: LAMP1::histag (human) (UniProt P11279); experiment: SPR (BIAcore 2000)
LAMP1::histag (human) [2] = molecular target: LAMP1::histag (human) (UniProt P11279); experiment: competition ELISA; H4A3 0.06 mg/L read with anti-mouse IgG; competitor chMAb3 15 mg/L
LAMP1::histag (human) [3] = molecular target: LAMP1::histag (human) (UniProt P11279); experiment: competition ELISA; H4A3 0.06 mg/L read with anti-mouse IgG; competitor chMAb1 15 mg/L
LAMP1::histag (human) [4] = molecular target: LAMP1::histag (human) (UniProt P11279); experiment: SPR (BIAcore 2000), mAb captured by anti-Fc, LAMP1 injected 1 to 256 nM
LAMP1::histag (human) [5] = molecular target: LAMP1::histag (human) (UniProt P11279); experiment: competition ELISA; H4A3 0.06 mg/L read with anti-mouse IgG; competitor chMAb2 15 mg/L

Sequence of LAMP1::histag (human) (P11279 other isoform, or with tags, fused parts or gaps): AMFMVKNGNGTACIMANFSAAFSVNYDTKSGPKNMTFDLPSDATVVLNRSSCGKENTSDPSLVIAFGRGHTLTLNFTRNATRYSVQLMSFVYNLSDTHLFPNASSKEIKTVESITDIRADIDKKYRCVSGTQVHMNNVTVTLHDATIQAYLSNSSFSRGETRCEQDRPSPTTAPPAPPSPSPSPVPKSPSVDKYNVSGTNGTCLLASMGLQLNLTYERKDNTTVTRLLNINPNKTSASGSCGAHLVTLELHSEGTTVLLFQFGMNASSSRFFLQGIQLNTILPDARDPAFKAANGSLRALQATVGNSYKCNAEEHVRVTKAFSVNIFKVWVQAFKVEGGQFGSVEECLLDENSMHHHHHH

Substance: H4A3 (BioLegend 328602) (antibody)
- Kd (LAMP1::histag (human) [1]): 100 nM
- percentage of signal compared to mAb control alone (LAMP1::histag (human) [2]): 11%
- percentage of signal compared to mAb control alone (LAMP1::histag (human) [3]): 98%
- Kd (LAMP1::histag (human) [4]): 105 nM
- koff (LAMP1::histag (human) [4]): 0.00609 s⁻¹
- kon (LAMP1::histag (human) [4]): 58000 M⁻¹ s⁻¹
- percentage of signal compared to mAb control alone (LAMP1::histag (human) [5]): 57%
